{
  "source": "paper doi:10.1101/602425",
  "molecular_target": "GST-Rac1A, active (GTPγs-bound) (Dictyostelium) (UniProt P34144)",
  "assay": "pull-down",
  "data": [
    {"substance": "GFP-WASP (wild type Dictyostelium WASP) (natural protein)", "values": [
      {"measurement": "immunoblot quantification of binding (%)", "result": 1.9, "unit": "%"}
    ]}
  ]
}
